Source: the DeepSol protein solubility set

Assay: soluble on expression in E. coli; label from the status in PepcDB or PDB records

Sequence | soluble on expression in E. coli
MYNVTQHATYKTKNKRETAVLIGVHAQTDRQFNFESTMEELDALSQTCQLNVKGQITQNREQFDHKYYVGKGKIDEIKSFIEFHDIDVVVTNDELTTAQSKTLNDNLGIKIIDRTQLILEIFALRARSREGKLQVELAQLDYLLPRLHGHGKSLSRLGGGIGTRGPGETKLEMDRRHIRTRMNEIKHQLKTVVDHRERYRNKREQNQVFQIALVGYTNAGKSSWFNVLANEETYEKNILFATLDPKTRQIQVNEGFNLIISDTVGFIQKLPTTLVAAFKSTLEEAKGADVLMHVVDASHSEYRTQIDTVNQIINDLDMDHIPQVVIFNKKDLCNEQMDVPVSKSAHVFVSSRDENDKQKVKNLVIQEIKNSLSPYEEIVDSADADRLYFLKQHTLVTELIFDETQASYRIKGFKKLLEHHHHHH | not soluble
EKAVLIGEKEADITFVTWGSQKGPILDVIEDLKEEGISANLLYLKMFSPFPTEFVKNVLSSANLVIDVESNYTAQAAQMIKLYTGIDIKNKILKYNGRHMTEDEILKSAKEILNKESLMVVLEDGS | not soluble
MFYGGIDVAKYRHEICIVDESGNVILQIFVDNTRNGLDKLIHNLKRLEIEVSNVEFCLEATGHYWLSLYYHLTELGYKIHVINPIQSDALRNFYVRKTKTDRKDAHLLADIVRFGHISETKLASETVLKLQNLSRLRFEFVRQVGGLKNRVLGILDRIFPEYPQCFSNVFINTSRELLKSFTAPEDLAEADLSELTDFLNKHSRGRLGVDRAKQIQALAKGTFGINIALDAFTLELRLLVEQIEFIEEQISVIEEAIDQVMEEMRPSKDTAYRHVLETIPGIGPVLAASIIGEIGDINRFPNAKALVAYAGLDATVRSSGQFEGTRNRISKRGSPVLRHSIWLAAVSARRFNPEMKEFFEKKRSEGKHTLVATGAVARRMVHLIYSLWKDNRPFDPNYQWSPTNSR | not soluble
MSLYTINIIPRVLHFKQPAGTSRGSYTTRNVWYIHLSSIECPGRVGVGECAPLPKLSCDDLPDYEQVLRSACQRLEQTGELDIESLRGYPSILFGLETALRHYETQSWALWDTPFSRGEVGIPINGLIWMGSFDRMLQQIEVKMQAGYRCIKLKIGAINFEEELALLRHIRAHYSAREIELRVDANGAFSPADAMDKLNRLAELDLHSIEQPIRAGQWEEMARLAAESPLPIALDEELIGCNALERKRELLAAIHPRYIILKPSLHGGISGGNEWIAEAEKQHIGWWITSALESNIGLNAIAQWCATFRNPLPQGLGTGLLFTDNVEMPLEIRKDCLWFCKEGHHHHHH | soluble
TLTVQARQLLSGIVQQQNDLLRAIEAQQHLLQLTVWGIKQLQARSGGRGGWMEWDREINNYTSLIHSLIEESQNQQEKNEQELLEL | soluble
MAHHHHHHMADDILQCVHKEFKYVLISSDINDQIKELTFSGSERKFQGVLASYFRRIIFDEKGKNELKEVIKEKLKVSKENDNGGTERAGAEQEGDQNGQKSGQPNGAELNASAITPDLINNAVESSQTYQIIPLTIPTEKTNFFAVNCYIDDIGRIKKLPYNSRASRICSTEIYGDAFLSKTYDNEDFRRCDFTISEYEQFLQNPPKAENRYPPSDTMCVSG | soluble
MTSSQLVKMRLELRRGVLVLAVLGLLKQPHYGYSLRKQLQDGGIDIDEGTLYPLVRRLAEQGLLDSEWRQAEGRERRYYQLSSSGAELLSQLTEEWQQLNGALAFLLGQVTDENAEEN | not soluble
MGSDKIHHHHHHMKDKSNSPLIKELKLANLLSFGSETTDIQLNSLNVVVGPNGSGKSNLIDAISLLQASPSDLAVPIRKGGGIRDWLWRGMELPTASMEVITPSAPHGNKDLRYYLAFTALKQRFELIDECLETKEPYTNHSEPYFYYRYQNGNPVINNIKDQKRMLKREDIDPEQSILSQRKDPDQYPEITWLGKQFAAIRIYREWNFGRKALLRQPQGADAPNDYLAEDCSNLGLVLNKLRTNYKVKKKVLDLLSQFYEGIDDFDVIVEGGTVQLFLQEGEFMIPATRLSDGTLRFLCLLAILCNPDPPPLICIEEPELGIHSDIIPVIGQLLKDASKMTQLIVTTHSEILVDELTDMPEAVLVCEKHEGMTRFRRLEKDLLKDWLERYSLGELWRKGEIGGTRW | not soluble
MQAFRAPSLATIDDVCGTRADGYDGAPLRSIPDFAVIVPMHNEEASVETLVAEIVTACQPVGQFEIVVVDDASSDRTVNAVLSLGDRYPMLRLVRHDRQGGQSAAIHSGVQAARAPVICMLDGDGQNPPDNLPALLAPLLSATATSRLGLVAGQRVGRRDTLGKRLSSRFANGLRARILKDGTRDTGCGLKAFRRDAYLALPYFDHHHRYFPALFNRDGWQVAHVDVTHRARLHGNSHYTNIGRALVGIHDLIGVVWLLRRRKRSSWAETFKTETSPLEHHHHHH | soluble
MGQRGQVCQGRCMAEDQQSSQISDTVPALRRAVRILDLVAGSPRDLTAAELTRILDLPKSSAHGLLAVMTELDLLARSADGTLRIGPHSLRWANGFLSHLDIVSTFNDHLAQRHDLDPYTVTLTVREGGEVVYIGCRNSAQPLGHTFRIGMRLPAPFTATGKILLSDLGPGELRMLFSQFPQPLTSRSVAGLSQLEEELALTRARGYSIDDGQIREGMLCIGAAIRDYSGAASAGIAISLIRSEASDEKIASLGEELRTTANALSEKLGYRSQKD | not soluble
MAYKSLLTVATSPERVEPAITVASRLALSSDAHLDVLALGIDGTQVAYYNMGGTAVVLQMALERAEQEAQAVEKAAAAALSAQPAMLRASVESAVAQMGGLAGLVALRSRFADLVVLSRPYGKGRGAETEAVVEAALFEGQAPVLVVPDDPALSERFGHRIVIAWDQSREALTAVRKAMPFLLRADNVDIVIVDPAAHGAERSDPGGALCQMLVRHGVRAEVSVLAKTMPRISDVIARHVRDQDADLLVMGAYGHSRFREAILGGATRDMLELAEVPVLMAH | not soluble
MRPGWIAADWGTSRLRVWAMGAEGVLAEARSDEGMGQIAVGGFEAALLRLIGLWLSDGPAVQVVICGMAGARQGWQEVPYRRLPCAPVDPQALVPVPSEDPRIAVRIVPGLAQAKPADVMRGEETQIAGALALLGSFDGVICLPGTHSKWAQVSAGEVVSFRSFLTGELFALLSERSVLRHGLAAEGWDDEAFLAAVSDGMSHPQKLGAKLFGLRAEALLQDLPPATARARLSGLLIGLELVGARSYWLGQPVVLVGEEALAARYGAALAAQGVQARLLPAAACTLGGLAAAVGQLTLASSGAGRKA | not soluble
MPTLTARSVIPPYMLRRIIEHGSLPQRDCALHTLNHVQSLLGNKPLRAPGAKTSTGGEVIRDIYDAENSTQLPGKQVRNEGQASNHDVAVDEAYDYLGVTYDFFWQAFKRNSLDNQGLPLTGSVHYGKEYQNAFWNGQQMVFGDGDGEIFNRFTIAIDVVGHALAHGVTESEAGLIYFQQAGALNESLSDVFGSLVKQFHLKQTADKADWLIGEGLLAKGINGKGLRSMSAPGTAYDDPLLGKDPQPASMKDYIQTKEDNGGVHLNSGIPNRAFYLAATALGGYAWEKAGYIWYDTLCDKALPQDADFATFARTTVKHAEQRFDSKVAQKVQQAWHQVGVA | soluble
MGAYLNKPIIEKEKEEGSGNGLSYACTTMQGWRVNQEDAHNCVVDLHTDWHMFGVYDGHGGTEVSKFTSAKLPDFLKERKFWEADDVAECLQKAFVDFDDFIRAEESMKELKDIGDEGKPKKAGGEADSEDEADRIDTIEEASVPLAELLKRYGGAGVGKSLLSAFLAKGDVSDDSEDEDEDEEEAEEQDDTEEKKENEDASAEVVIENAEDKEEEEGSPKKKGQKRCQKSPIQSEAKKSKSETDAETAPSSSSGVDGVATEEEDEDDSDKEFVADEEEDDEDAEDEQSDEEMVDGSLAPLLLGSGGAEVPGEDSGTTACVCLVGKDKVIVANAGDSRAVLCRNGKAVDLSVDHKPEDEVETNRIHAAGGQIEDGRVNGGLNLSRAFGDHAYKKNQELGLKEQMITALPDVKIEALTPEDEFIVVACDGIWNSMESQQVVDFVRDLLAKGSSCAEVCDALCDACLADSTDGDGTGCDNMTVICTTFDRKSK | not soluble
MAALASSLIRQKREVREPGGSRPVSAQRRVCPRGTKSLCQKQLLILLSKVRLCGGRPARPDRGPEPQLKGIVTKLFCRQGFYLQANPDGSIQGTPEDTSSFTHFNLIPVGLRVVTIQSAKLGHYMAMNAEGLLYSSPHFTAECRFKECVFENYYVLYASALYRQRRSGRAWYLGLDKEGQVMKGNRVKKTKAAAHFLPKLLEVAMYQEPSLHSVPEASPSSPPAPLEHHHHHH | not soluble
MTEFQLEKAATLKTIAIRAKKVGEMVDFYKKVMGFVLKSEENNLSIWGTREAGTQLLILEETRKAEDFHNEEKQMAYFSIKVPTEKEFLQIAQRVLEQDYPIDESFQIGTRQSMFITDLEGNQFEIFHDEATANSTSEKQPIVLKDLISEDLEPHQGLAAGSYLAHVQLKTNNQKEIKAYYEEVLGLKRNEKDQFVLEDGKATIGFQKPETSEVDQLPDPHLGLDFFTIKLSDQEHILAMEQQLTAKNQEFFIDQKKAIVTVFDPIGLEWWFVLK | not soluble
MPLNHYQQEVGPSLADTSPGKMPDVALLEGRYCSVEHLTVAEHYEDILDFYFTNQILSDWTYMYADPFESEEAVRQCLEDYEQSQNPYFFAIRDKASGKVLGTFSLMAITPKNRSVEMGRVILAPALQKTRAATEAQYLLMKYVFEDLNYRRYEWKCDKSQPPFCQCSHSFRVHL | not soluble
MAGILHNEGVKVAITTDHPVTRIQDLLICAGLAAKEGLGIEEGLKAITINPAEICNVANRVGSIEVNKDADIAIFDGNPMETFTKTMYTIINGEIVYSLKDLEHHHHHH | not soluble
MRRGRGKGKKQNASAREDRGSGDEEKIPAYRRRGRPQKPMKDDFEEEEEEDDEEMVEKMEVEDEDEEIDDGSVTSKDLKERKRKMSNGSNTDLTEEENGLGSKPNTDDSTRSTSIGFRQNGSRRKSKPRRAAEAVVECNGV | soluble
RSIRLPETIDLGALYLSMKDTEKGIKELNLEKDKKIFNHCFTGNCVIDWLVSNQSVRNRQEGLMIASSLLNEGYLQPAGDMSKSAVDGTAENPFLDNPDAFYYFPDSGFFCEEN | soluble
ALEGTEFARAQLSEAMTLASGLKTKVSDIFSQDGSCPANTAATAGIEKDTDINGKYVAKVTTGGTAAASGGCTIVATMKASDVATPLRGKTLTLTLGNADKGSYTWACTSNADNKYLPKTCQTATTTTP | soluble
MKLNCCGVTQIADRVERLAHTHGKTWHTWHTDQDKTLPLGVPQLMMGFTADGQADPAMQQQRNQRLGIVKSAIKAQRADIQIPKADPGADGWQHGKTIQINDPTGHLHGPATSPTPQNTNSRSTQLEHHHHHH | not soluble
MSLTYLIKVLELFSGVGSFSISLNTLGIEHEIVGFSETRKTATQLFCKLHNKKESENLGDVRNVSAKDLDVDLLVFGSPCQSFTRAGKQGGGLKGSDTRSALMWEAVRIMEECKPKWIVWENVPDAISRKNMPNFQNYMDELDSLNYNTYYKVLNAHELGSAQKRKRLFSISIRKDIDNGKFEFLDLTREPKHLETYLENNDQPDIANEHIHSHLILGKDENGYKIKNGTKKGYLYANNGDGIDLAYVTSKARRGRVQVKACQTIMRGKTLGTINDGVLRFYSPREYWRLQEMPDELYKHVEACNFKPSTAYDVVGGVINQLHLKTVFLSLKKAFNEGHHHHHH | not soluble
MGSDKIHHHHHHMGNVSTFSIPGPARIPSAATTPAPHPWNRYVALGDSFTEGYGDPEPQSPGGVRGWADRVAEELSLGHQDFAYANLAVRGRLLQQIMDDQLGPALELRPDLVTLSAGGNDLVFRGSDPDKLAERLDPAIGLLSATGATVVLFTGPDWGNTPVFGRIRGKVAIFNENLRTIAARHDGVVADLWTLRQLAAPHMWDPDRLHFSPLGHHTIAAMVLETLNVPHTLKPLEPKVLPVSSWREARSSDLVWAKDYLFPWVVRRVRQRPANLGLKAKRPEPGPIFGPGVAHGPFPAGPLTAGKP | not soluble
